From patent US20260184804A1 (KEY2BRAIN, published 2026) come the findings set out here.

Experiment [1] concerns the target T1, His-tagged ectodomain of mouse transferrin receptor 1 (mTfR1), amino acids S122-F763 (mouse, UniProt Q62351 122-763).
T1 construct: Made in CHO cells; also called mouse TfR1
As to the kind of experiment: SPR (Biacore T200); mTfR1 amine-coupled on CM5, KB_A01 as analyte. On the procedure: The contact time was 150 s for each concentration at […] with a final dissociation step of 500 s. […] At the end of each single cycle run, the mTfR1 surface was fully regenerated by an injection of 10 mM NaOH for 30 s. After each single cycle kinetic run, blank run was performed and used for baseline correction. The data with respect to the association rate constant (ka), the dissociation rate constant (kd) and the equilibrium dissociation constant (KD) was evaluated using Biacore T200 software evaluation tool applying a Langmuir 1:1 model.

Experiment [2] deals with T2, His-tagged ectodomain of human transferrin receptor 1 (hTfR1), amino acids R121-F760 (human, UniProt P02786 121-760).
T2 construct: Made in CHO cells, purified by IMAC; also called human TfR1; ectodomain of hTfR1
T2 sequence (P02786 other isoform, or with tags, fused parts or gaps limits assumed): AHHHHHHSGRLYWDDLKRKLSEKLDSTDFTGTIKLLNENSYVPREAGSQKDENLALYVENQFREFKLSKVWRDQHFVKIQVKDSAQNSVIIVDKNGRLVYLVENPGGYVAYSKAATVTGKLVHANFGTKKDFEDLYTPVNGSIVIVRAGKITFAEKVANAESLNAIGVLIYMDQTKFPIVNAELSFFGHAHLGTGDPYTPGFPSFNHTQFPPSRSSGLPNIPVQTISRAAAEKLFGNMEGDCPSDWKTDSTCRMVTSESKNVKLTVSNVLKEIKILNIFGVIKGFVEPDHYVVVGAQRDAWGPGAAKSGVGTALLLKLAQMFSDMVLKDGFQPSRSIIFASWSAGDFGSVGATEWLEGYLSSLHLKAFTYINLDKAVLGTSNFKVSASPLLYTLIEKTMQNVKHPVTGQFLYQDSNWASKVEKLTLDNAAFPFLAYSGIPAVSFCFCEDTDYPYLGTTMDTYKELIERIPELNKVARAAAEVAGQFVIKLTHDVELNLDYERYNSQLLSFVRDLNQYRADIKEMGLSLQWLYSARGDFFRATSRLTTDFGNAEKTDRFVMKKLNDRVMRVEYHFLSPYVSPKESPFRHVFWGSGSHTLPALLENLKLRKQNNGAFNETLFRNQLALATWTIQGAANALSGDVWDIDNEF
As to the kind of experiment: SPR (Biacore T200, single-cycle); hTfR1 captured on amine-coupled hTf, binder as analyte 6.25-100 nM. Background: In SPR one partner is held on a chip, and binding of the other changes the refractive index at the surface.

The target in experiment [3] is T2, His-tagged ectodomain of human …. Briefly: SPR; hTfR1 pre-complexed with immobilised hTf.

T1 sequence (Q62351 other isoform, or with tags, fused parts or gaps limits assumed): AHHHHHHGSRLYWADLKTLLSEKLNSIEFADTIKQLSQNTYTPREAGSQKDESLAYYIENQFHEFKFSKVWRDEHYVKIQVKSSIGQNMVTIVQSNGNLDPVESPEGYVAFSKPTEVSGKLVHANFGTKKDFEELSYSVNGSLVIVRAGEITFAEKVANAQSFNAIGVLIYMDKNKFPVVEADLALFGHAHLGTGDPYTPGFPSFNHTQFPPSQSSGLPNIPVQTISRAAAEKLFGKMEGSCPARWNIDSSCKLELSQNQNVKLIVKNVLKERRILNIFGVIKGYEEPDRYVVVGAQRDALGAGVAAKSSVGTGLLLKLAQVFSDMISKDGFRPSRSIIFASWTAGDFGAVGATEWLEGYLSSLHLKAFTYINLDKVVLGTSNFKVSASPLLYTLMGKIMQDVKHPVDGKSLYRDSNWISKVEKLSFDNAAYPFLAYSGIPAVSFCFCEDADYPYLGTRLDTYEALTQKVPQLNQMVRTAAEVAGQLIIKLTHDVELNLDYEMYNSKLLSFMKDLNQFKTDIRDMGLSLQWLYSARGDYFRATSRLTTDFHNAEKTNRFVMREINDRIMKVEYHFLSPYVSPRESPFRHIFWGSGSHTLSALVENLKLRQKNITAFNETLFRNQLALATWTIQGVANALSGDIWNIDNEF

B1: KB_A01, monomeric free VHH with C-terminal 6xHis tag and C-tag (VHH)
VHH: QVQLQESGGGSVQAGGSLSLSCAASGSIFGSKRMGWFRQAPGEQRDVVATITYRGTTEYADSVKGRFTISRDNAKNTVYLQMNNLKPEDTAVYYCWMFTTDNYWGQGTQVTVSS
notes: From the periplasm of E. coli
What is called Kd is the free concentration of one partner at which half of the binding sites on the other are occupied at equilibrium, for simple one-to-one binding. Read a high Kd as weaker binding. By koff is commonly meant the rate constant with which the complex falls apart. The kon is the second-order rate constant of association. Read a high kon as faster complex formation. B1: the binding result in experiment [1] is “no binding (tested: 6.25 to 100 nM)”. In experiment [2], this molecule came in with a Kd of 4.1 nM, a koff of 0.00414 s⁻¹ and a kon of 1.01e+06 M⁻¹ s⁻¹. Besides, the “fold lower affinity (KD) than the bivalent BA1” value in experiment [3] is 206 fold.
